The values below come from a protein production outcome set (Wang et al. 2014).

The nature of the series: label from the status in PepcDB records.
Take “MDGHNQNQYQNQNQIQQSQQPPLKKYVTQRRSVDVSSPYINLYYNRRHGLPNLVVEPETSYTIDIMPPNAYRGRDRVINLPSKFTHLSSNKVKHVIPAIQWTPEGRRLVVATYSGEFSLWNASSFTFETLMQAHDSAVTTMKYSHDSDWMISGDADGMIKIWQPNFSMVKEIDAAHTESIRDMAFSSNDSKFVTCSDDNILKIWNFSNGKQERVLSGHHWDVKSCDWHPEMGLIASASKDNLVKLWDPRSGNCISSILKFKHTVLKTRFQPTKGNLLMAISKDKSCRVFDIRYSMKELMCVRDETDYMTLEWHPINESMFTLACYDGSLKHFDLLQNLNEPILTIPYAHDKCITSLSYNPVGHIFATAAKDRTIRFWTRARPIDPNAYDDPTYNNKKINGWFFGINNDINAVREKSEFGAAPPPPATLEPHALPNMNGFINKKPRQEIPGIDSNIKSSTLPGLSI”: the protein production entry was “failed”.

Turning to “MHAINFIQDLAVIMLVAGVVTILFHRLRQPVVLGYIVAGFIIGPHTPPVSLIHDEDTIKILAELGVIFLMFCLGLEFSLRKLFKVGATAFIAAFLEIALMIWIGYEIGQFFGWKTMDSLFLGAILAISSTTIIVKALNDLKMKNQHFAQLIFGVLIVEDILGIGIIALLSGIAVSGSVSSGEVFSTVGKLSLFMIVALVVGILLVPRLLSYVARFDSNEMLLITVLGLCFGFCLLVVKLEYSMVLGAFLIGAIMAESRELLKIERLIEPIRDMFSAIFFVAIGLMIDPKILLEYAWPIAVITVAVVLGKMISCGLGAFIAGNDGRTSLRVGMGLSQIGEFSFIIAALGMTLQVTSDFLYPVAVAVSAITTLLTPYLIRGADPLSLKLAAIMPRRVARVFGMYGEWLRSIQPQGQSAVLAGMIRRILLQVGVNLALVMAIFFSGGYFAERLGGYMDEWVADVSHQKAWICGAALLLSLPFLIAAYRKLKALSMLLAEMGVKPEMAGRHTVRVRKVVAEVIPLLSLVVIFVMLAALSASILPANELLLVVVLVAALVAALLWRWLIRVHTRMQIALLETLGNNQESSGH”, the protein production result is reported as “failed”.

Regarding “MQLEPRINTFSMEAMFTFSSTFLYDSIVDSSRPILATSLLGCDVTDPERRATTACCICEETLSELHMTRPTQKVKAVSGPTRERHIIFSTCKPVL”, the protein production entry is given as “failed”.

As for “MSSRCLGCGTKFDSEAGRPRCPACRWEPEEIGGIAAYAPQFANQGGGFEASYFKVLSELEATNFWFRSRNDLILWALRKYHPKFRSFLEIGCGTGFVLSGVTGKYPEAEIFGSEIFIEGLRFASQRLPNARLMQMDARAIPFAEEFEAIGAFDVLEHIEEDETVLQQMHAALKPKGTLLVTVPQHPWLWSPLDDYAHHCRRYTANELSRKVTAAGFTILRNTSFVSFLLPAMLASRLLSRNKSVDEIDVRTEMQLPSLLNNAFRWILRAESALIGTGFDFPLGGSRLLVARKM”, the protein production entry is on record as “failed”.

In the case of “MLRYILLKIDIGKEGTDMAAIQAKNGPTEKLSLFLLTWPIFLEVFLFMLMGIADTFMLSALSDDAVSGVGAANQYLHIAILVLEVIGNGAAIVVSQYLGSKRFMEASKISALAVTLNLIVGLVISTGFLLFSKHMMLAMNLQGDVLTYAQNYLSIVGGAIFLQAIINSLAAIIRVHGFTKQAMFISLGMNMIHIAGNYVLIFGKFGFPELGVQGAAISSAVSRLIALIVFFWLLYRVMEYRVKLQYYFTLSKEYIGKILKIGIPSAFEQVMYQACQIVFLYYATYLGTESLAARQYATNISMFTYLFAIAIGMGTAIIIGRLVGGGEKDEAYERLWKSVKWAIGVTLCMVALVITFRTQLMGLFTDNPYIIGLGASVLLLSVLLETGRTMNIVIINSLRAAGDAKYPVLIGAFSMVLMSLPLGYFFAFHLDMGLVGIWLAIAIDEWTRAIIMFFRWKSRAWERYALVKPEEQEENVSVQVQ”, the protein production result is “failed”.

Consider “MFLVISVVGSSNIDIVLKVDHFTKPGETQKAIEMNVFPGGKGANQAVTVAKIGEKGCRFVTCIGNDDYSDLLIENYEKLGITGYIRVSLPTGRAFIEVDKTGQNRIIIFPGANAELKKELIDWNTLSESDILLLQNEIPFETTLECAKRFNGIVIFDPAPAQGINEEIFQYLDYLTPNEKEIEALSKDFFGEFLTVEKAAEKFLELGVKNVIVKLGDKGVLLVNKNEKKHFPTFKVKAVDTTAAGDVFNGAFAVALSEGKNPEEAVIFGTAAAAISVTRLGAQSSIPAREEVEAFLKNL”, for which the protein production entry was “not failed”.

As for “MKQLSGLLGELRQKLCAGFPEQAGIQQLIFPAPGLVGRQLLEWLTAQTHFPQFYWRHRDNHEEAAVCGQTRSFADMKDADDFIQQNPDANGLRIWGLNAFEPVMVFGQLTDNGLVSGKNAQASFLFLPRLEILRRGKKTSLTLNLSSETSLQKDALQAITFIDQLMAARALPVLNARIQHSSHTPGYPQWRNLIQQALNDIEQQKLDKVVLARTTTLTLNKPLSCAAFMAASRQVNHRCYHFMLRFDDRQAFLGSSPERLYLRQQLHLETEALAGTVSNLDSDPQAAVLADWLMHDEKNQRENLLVVDDICQRLQGGVTAVDVMPPEIIRLRKVQHLRRRICAQLSRASDTDCLQRLQPTAAVAGLPREAARQFIAKHELFSRGWYAGSAGYLSLKRTEFSVALRSARVDGQQIHLYAGAGIVAGSDAEQEWQEIDNKSAGLQSLLEHEAQPVKA”, the protein production result is on record as “not failed”.

For the sequence “MATPAYMSITGTKQGLITAGAFTADSVGNTYQEGHEDQVMVQGFSHELIIPRDPQSGQPTGQRVHKPVKITKVFDKSSPLLLAALTSGERLTEITIQWYRTSAAGTQEHYYTTKLEDAIIVDIKDYMHNCQDPANAHFTHLEDVEFTYRKITWTHEVSGTSGSDDWRSPVAG”, the protein production entry is reported as “not failed”.

For “MDSPKRGGPRVRPSFVFCTRTCFPTPPDRMSDSESADPHSPSPTGDGQDTEPRDADGHEVARRGDTEAMEGLLEQGMDPNHTNEHGHSLLMIAAYSDQPEMADLLIEHGADPNRSDPSGSTPLMGCCFKGLAEAAEVLIEAGADVNATGARGATALMYAATYGESALVDLLLEHGADPTTTNEQGQTAAEQAAAEGHEEIAERLRQATAGA”, the protein production result was “failed”.

For “MASRFSRVVLVLIDALRFDFAQPQHSHVPREPPVSLPFLGKLSSLQRILEIQPHHARLYRSQVDPPTTTMQRLKALTTGSLPTFIDAGSNFASHAIVEDNLIKQLTSAGRRVVFMGDDTWKDLFPGAFSKAFFFPSFNVRDLDTVDNGILEHLYPTMDSGEWDVLIAHFLGVDHCGHKHGPHHPEMAKKLSQMDQVIQGLVERLENDTLLVVAGDHGMTTNGDHGGDSELEVSAALFLYSPTAVFPSTPPEEPEVIPQVSLVPTLALLLGLPIPFGNIGEVMAELFSGGEDSQPHSSALAQASALHLNAQQVSRFLHTYSAATQDLQAKELHQLQNLFSKASADYQWLLQSPRAEATLPTVIAELQQFLRGARAMCIESWARFSLVRMAGGTALLAASCFICLLASQWAISPGFPFCPLLLTPVAWGLVGAIAYAGLLGTIELKLDLVLLGAVAAVSSFLPFLWKAWAGWGSKRPLATLFPIPGPVLLLLLFRLAVFFSDSFVVAEARATPFLLGSFILLLVVQLHWEGQLLPPKLLTMPRLGTSATTNPPRHNGAYALRLGIGLLLCTRLAGLFHRCPEETPVCHSSPWLSPLASMVGGRAKNLWYGACVAALVALLAAVRLWLRRYGNLKSPEPPMLFVRWGLPLMALGTAAYWALASGADEAPPRLRVLVSGASMVLPRAVAGLAASGLALLLWKPVTVLVKAGAGAPRTRTVLTPFSGPPTSQADLDYVVPQIYRHMQEEFRGRLERTKSQGPLTVAAYQLGSVYSAAMVTALTLLAFPLLLLHAERISLVFLLLFLQSFLLLHLLAAGIPVTTPGPFTVPWQAVSAWALMATQTFYSTGHQPVFPAIHWHAAFVGFPEGHGSCTWLPALLVGANTFASHLLFAVGCPLLLLWPFLCESQGLRKRQQPPGNEADARVRPEEEEEPLMEMRLRDAPQHFYAALLQLGLKYLFILGIQILACALAASILRRHLMVWKVFAPKFIFEAVGFIVSSVGLLLGIALVMRVDGAVSSWFRQLFLAQQR”, the protein production entry is reported as “failed”.

On to “MSVGTSSAPGARQVPRPLAPRTSGDPADLGIDPDQLPDGLVVADEHGRVVCFNAAAVRITATPAAEALGQLLESALPLEDLEGRRWWQLTDPYGGLAIRVRQPERNLLLPGGREVLVTARYVRAERLGPVHRVVVTLRDTEARRRTERSHAELIATVAHELRSPLTSVKGFTATLLAKWERFTDDQKRLMLETVDADADRVTRLIAELLDISRIDSGRLEVRRQPVDIGAAVGRHIQAYVASGLEADRFLLRLAQPLPDLWADPDKVDQVLSNLLENAVRHGEGTVTIDVTPTASPREGEDTGTSVTVSDEGAGIPEESMNRVFTRFWRGSKRGGTGLGLYIVKGIVEAHGGTITVGRAPGGGAEFRFTLPVAAPAYLT”, for which the protein production entry is given as “failed”.

Regarding “MNTIDIAKSYITAIQTGDHATLGSIISPDVIWHQPGNHQFSGTHRGMAVVGPMLGKMMEVSNGTFAISRADDYMASGDWVAITLEFSGQANGVTLKQAGVDLLRIEDGKIVEVRLFSADQTQEDAFWGR”, the protein production result was “not failed”.

For the sequence “MKKIICYLSLSALSLSSFSQTQIANGDFENWSSSEYCSALDSLDNFLTGQAFFYLNAKNETDAIECPALPFTYKTTDKQSGSYALKLGPQYFDDKAYYNFVTLGEAAYFEEEGSVASFGIPFTGRPSKLTGYYKCTAGAVGDELQIKVFGSNFTSEDPLFYGVFTASENQPMYEKFEIDLVYDPTDPNNAVYLSMLITVGNLNDGSIDENTVAFIDNLVFEYDATAATSYTPVSPIHVFASNKTISFSEHVSDIHVVDMVGANNIQEAASTKTLHAETLNSGLYIVTYNYKGNYFSKKVVIE”, the protein production result is “failed”.

For “VWAHYEEQPVEEVMPVLEEKERSASYKPVFVTEITDDLHFYVQDVETGTQLEKLMENMRNDIASHPPVEGSYAPRRGEFCIAKFVDGEWYRARVEKVESPAKIHVFYIDYGNREVLPSTRLGTLSPAFSTRVLPAQATEYAFAFIQVPQDDDARTDAVDSVVRDIQNTQCLLNVEHLSAGCPHVTLQFADSKGDVGLGLVKEGLVMVEVRKEKQFQKVITEYLNAQESAKSARLNLWRYGDFRADDADEFGYSR”, the protein production result was “failed”.

As to “MAAKFHLKKAKDGQFHFNLHAANGEIILTSELYKAKDSALGGIESVRKNSQRDGAFEVKPANNGKFHFVLKATNGQVVGQSQLYASQANAEAGVQSVKRATPEAGLSDESLEHHHHHH”, the protein production entry was “not failed”.

Take “MTEEQFSSYHPPLPPTTEEDRFSWLRLLRSRRVGPTTFRRLMHEHGTAQNALAALPEVARAAGVEGYEICPPGVVEAELKAAKAAKARLLCLGDADYPSHLAGISDAPPLLWLLGDPALLRRPMIALVGARNASSLGTRMARALAQDLGTAGFVVVSGLARGIDTAAHLAALPSGTIAVMAGGVDTVYPAENTHLAADIAQHGLRLSEQPMRLTPQARHFPRRNRIISGLAQAVVVVEAAAKSGSLITARDALDQGREVLAVPGHPFDARAAGCNMLIRDGAHLVRNAEDVITALPALTAPQPQPDLCDLMQQPAPPAKRSLRETVALHSLILDRLGPSPVAEDQLIRDLAASPGEVAPVLVDLELEGRINRQAGGLLSRVN”: the protein production result is given as “failed”.

“MSHTKPSIAILGAGRVGSSLARSAVAAGYEVKVAGSGAVDKIALTAEILMPGAVPSTADQAVKDADIVFLAVPLHKFRSVNPATLEGKIVIDTMNHWVPVNGELEEIDQDPRSTSEIIAEFFAGSTMVKSFNHIGYHEIEQDAGTGRAIAYATDDVDAGAQVAQLIKSFGFVPLNIGALENGRILEPGQEAFGAHLNKDSRLELVNQR”: the protein production result is listed as “failed”.
